Our source for the response values is publication PMC7078472.

The chains are these.
B1: unnamed (parent)
chain 1: VHQRIASWQNLGAVYCSTVVPSDDVTVVYQNGLPVISVRLPSRRERCQFTLKPISDSVGVFLRQLQEEDRGIDRVAIYSPDGVRVAASTGIDLLLLDDFKLVINDLTYHVRPPKRDLLSHENAATLNDVKTLVQQLYTTLCIEQHQLNKERELIERLEDLKEQLAPLEKVRIEISRKAEKRTTLVLWGGLAYMATQFGILARLTWWEYSWDIMEPVTYFITYGSAMAMYAYFVMTRQEYVYPEARDRQYLLFFHKGAKKSRFDLEKYNQLKDAIAQAEMDLKRLRDPLQVHLPLRQIGEKD
chain 2: DIDTAAKFIGAGAATVGVAGSGAGIGTVFGSLIIGYARNPSLKQQLFSYAILGFALSEAMGLFCLMVAFLILFAM

The assay covers variants of B1. Description: MYTH (membrane yeast two-hybrid) quantitative β-Gal activity assay. Conditions: with partner chain of the complex shown; yeast strain NMY51; n = 3; 6 colonies for each independent experiment; read off a plot.
With chain 1 Q196A I199P L200P W205A, the response worked out at 26 units.
